From IntAct's records for PubMed 15385968

B1: DNA repair protein XRCC4 (Homo sapiens), Q13426 (parent)
chain: MERKISRIHLVSEPSITHFLQVSWEKTLESGFVITLTDGHSAWTGTVSESEISQEADDMAMEKGKYVGELRKALLSGAGPADVYTFNFSKESCYFFFEKNLKDVSFRLGSFNLEKVENPAEVIRELICYCLDTIAENQAKNEHLQKENERLLRDWNDVQGRFEKCVSAKEALETDLYKRFILVLNEKKTKIRSLHNKLLNAAQEREKDIKQEGETAICSEMTADRDPVYDESTDEESENQTDLSGLASAAVSKDDSIISSLDVTDIAPSRKRRQRMQRNLGTEPKMAPQENQLQEKENSRPDSSLPETSKKEHISAENMSLETLRNSSPEDLFDEI

Variants of: B1
Conditions: with pnkp_human PNKP

Variant | effect of a mutation on the interaction
T233A | disrupting interaction
